# Article PMC2289477
# Target: profilin from bovine brain (profilin of the high-affinity profilactin complex) (bovine (endogenous in bovine brain)) (UniProt P02584)
# Chain of UniProt P02584 (P02584 whole entry, one chain of several): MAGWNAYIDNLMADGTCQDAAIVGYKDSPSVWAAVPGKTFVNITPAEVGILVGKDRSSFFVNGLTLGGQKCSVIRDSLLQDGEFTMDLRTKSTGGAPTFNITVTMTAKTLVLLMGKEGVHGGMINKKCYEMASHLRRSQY
substance,measurement,value
actin from bovine brain (actin of the high-affinity profilactin complex) (from UniProt P60712 1-375) (natural protein),stoichiometry N (actin/profilin molar ratio),1
